Source: paper PMC7498358

Biological target: YB-1 CSDex (Homo sapiens, UniProt P67809 51-140)
Test: NMR HSQC titration

YB-1 CSDex, sequence (P67809 51-140): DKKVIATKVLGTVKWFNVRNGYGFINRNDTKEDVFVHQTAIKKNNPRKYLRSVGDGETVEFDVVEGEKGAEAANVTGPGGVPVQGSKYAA

B1: CACC dsDNA (dsDNA)
DNA 1: TCAACACCTC
DNA 2: GAGGTGTTGA
binding result: binds
